test: soluble on expression in E. coli; label from the status in PepcDB or PDB records

Soluble on expression in E. coli, not soluble:
MAHHHHHHMCISELRSLRGHGRNVYIIYDVAKEGTPPPRHFASTSGWGMIAVSFPKVTNYDEWEKQLKAARIIMNCPDGMDVKAMCAWMERDGDTDEQTKYWKMVETHMEKVGPIPRHIFYAKGINARFGAVENALEAINSRYADDRFILPGGGLWYAKDPSQKLVRIVRIRGERGNERFRNAPICYFLGSRSANILAKAMSEKDFLLLVWGVRKTISSAYLEKFCLRALIFGRFFSAMAEELKELNSPAHDIQDTVLKANPGAHPTEICEIPGVGKIDAKQNINHRVLYIPMLRDFPLVDCFFFVESPRRTLVGLQMTTAGEHHTTTSTVRQFTEHLSKFFNGWDEFAQGLSWRDYLCAARRQHADEWLAEMWCRRPAECGRC
MNIRNARPEDLMNMQHCNLLCLPENYQMKYYFYHGLSWPQLSYIAEDENGKIVGYVLAKMEEDPDDVPHGHITSLAVKRSHRRLGLAQKLMDQASRAMIENFNAKYVSLHVRKRSVKWSPNTMQMGRTPMP
MLSMCNKYPDFDDEERVRRVDDDFRDVITVFDAPFEGKSPSPAVIVFDELVDSDGSSKYLNFKMEQSYEKVDEIPEKIDAERIRYAIHLGSHSQKNVLQIFQSAYSDGYTEEDKNGKVPVGGKVKCAETETGFRTKINCENVVTAVNEYMDSNREKFGELRIETLNKAERNLDGYIYFSFLKQKPCRNLFIRIPPLE
MGSDKIHHHHHHMRRRHVGVGAELTAFRILAAISCERLFWETGSRNQAVKTRAESANREISMIRTAMIAATALAASLAASAPAFAADVVGLWATPGNGGQVEISRCGNSLCGKLVTSDHIKTNPGLKDIKNKDESQRSRTLKNLQMLYDFSGGPTKWTGGKVYNPEDGGVYAGTIELVSTTELKLKGCVVAPLCKTQKWTRIR
MGSDKIHHHHHHMSVMETTHRQYRQTLIFGLIRIVEELFPQEEIKIQYSILDGIYCELENSPLSPREVAQIEEKLHHWLESKPKIMSCAEEDGFFHTKVNHIFVKSLYPAMHPADTYYPFTLIFYHPGFILLFSNPEHPCELPNFVPPEKLAATFLESQRWVENLHLDKVGSINLNIRKGKTTELISLAEALHEKKISLIADRILEQRRNLRIILISGPSSSGKTTFAQRLSTQLQVNGIRPIALSLDNYFCDREHTPLDEYGQYDFEALEALDLPLLNQHVKALIHGEEIECPIFDFVAGRRQPEGIRMKLEPDEILVMEGIHALNPRLLPSLERSHLFKIYISALFQPNIDTHNRISTTDVRLIRRLVRDDKYRGINPEKTLNQWSSVRRGENNNIFPYQEEADVMFNSSLLYELNALKAYAEPLLISIPKDHPYYATASHLLRVLYHFEILDIAKVPFNSILREFIGGGIY
MGHIIDISKWNGDINWSIAKQHIDFIIARVQDGSNYVDPLYKGYVQAMKQHGIPFGNYAFCRFVSIADAKKEAQDFWNRGDKSATVWVADVEVKTMNDMRAGTQAFIDELYRLGAKKVGLYVGHHMYTPFGMANVKSDFVWIPRYGGNKPAYPCDIWQYTETGNVPGIGKCDLNSLIGNKSLSWFTESATQESVQAPTQNIIQSGAFSPYETPDVTGALTSLKMTAKFILKPDGLTYFISDPTSDAQLNAMKEYLDRKGWWYEVK
MSLETKVAARDLSSLLSHCEAPVAALTVTAFKCKASACSVAPAPGSNTGLGALMSMAQAAQGLQTFPNIGDGLSNALTTALKTTGCFKVMAREDFEDLRREAEAAGITLKSASADYLVTGAITSLAVGAKTQSFGGGFVPLVGAVSRSTKSANISIDVRLVDVKASEVKASQTFDVSNERSSWGAGGAGWGGSGALFGAASSTQSPELDSVANESVIQAANYIVTQVAGSAAIPPVAAITKEGHHHHHH
MTNPLNSTAANRSNQPSSDGISDGQITNEEAESLINKKNCSGHKLKEVTDSDTFSDNGKDDSDTKKRFHYHQDQRRMSLTSIVAVESPSSSNAPSRKTIDLGHGSDLIYIQRFLPFQQSWTFFDYLDKHIPWTRPTIRVFGRSCLQPRDTCYVASSGLTALVYSGYRPTSYSWDDFPPLKEILDAIYKVLPGSRFNSLLLNRYKGASDYVAWHADDEKIYGPTPEIASVSFGCERDFVLKKKKDEESSQGKTGDSGPAKKRLKRSSREDQQSLTLKHGSLLVMRGYTQRDWIHSVPKRAKAEGTRINLTFRLVL
MGSDKIHHHHHHMKAAVYEGKKAIKMTELPTPKAGPNDVVIQNIYAGICGSDVAVYNHGSGTGHKIETDHEFGHEAVSKVVEVGDDVHDFKIGDRVYPYPLLARGDPSRAGSMGGFSEYILIPNAKLNRQLYLVPKEIDNHVAAMIEPFTVGTRAAKQTRPDKNDNAIVYGTGTIGMAAAVALKHLGVKQVMLVDLSDYRLNVAKELGFLTVNSSRDDVRSQAIEAFGKAEYSLHGEAPDTQIFLDAAGHNSILEDFLQFGPVGSRFVTVGVNNSKPQIDFLELIFGSKSVGGSGGYRPEDVQTVFEIMKERQSDLRKMVSQEFDWQDLEKGIQTATDTTISEKVLINYHL
KTKVGNQSPDVRFGLQNTFKIKDFTVNIDMDGAIGGTLISTTTQKMWWGGKHPKSTMYRQEEYDNGGKPVYVPEGVNIVSGEVTYDVNGNIVSDTRVYKKNETAVNIQTWAQNYPYRAVVRTEESELFANTFSRSFLKLRRVAVTYDLTKFIQSQFIKGLDVTVFGNNLAVLKKTPYLDPDFGASDGDLQDPSARYVGVSANIKF
ISKETEEIDEQQVFIDSLSGHAQILYEKYHVLPSITIAQAILESDWGNSELAAKANNLFGVKGNYKGHHVTMETDEVEKGKRKTIRAKFRKYSTFFESMDDHAQLFVRGTSWNKKKYKPVLEAGNYKEAATALQTSGYATDPDYADKISAIVEKYDL
MGRIRQTFIKRTGEELIEKFADKFTSDFEENKKAVEEVAMISTKPLRNRIAGYVTAKVKKMNALEHHHHHH
MQFPVLQESSQSALPQLTGILSSLIVTEEVKAAETDAIMAANTGKSEIVQVTYKLFGLIPFKSSAIQVMPQLKLLPGGQSIGVSLQAKGVMVVGQAAVQNQEGKLVYPAKEAGIEVGDIILKIDGREMNSDQDVANAIHRAGEKQGFSEILLNHNGQTMQKRVSTVYCPETNRHRVGLYVRNEAAGVGTLTFYDPTNHKYGALGHVINDVDTNQKIEILNGNVVASTIYAIEKGKRGHPGEKIGSFVNQSKFSGNIEKNTVSGIFGSLEGEIKNPYFQEPITVGWESEIKEGPAKIYTVLEGERIEEYDVQIERIMHNRTDSKNMVIKVTDPELVEKTGGIIQGMSGSPIVQDGKIIGAVTHVFVNDASRGYGVFIQNMLKDADIIDKKEVALEHHHHHH
MGHHHHHHSHMASRVRVTILFATETGKSEALAWDLGALFSCAFNPKVVCMDKYRLSCLEEERLLLVVTSTFGNGDCPGNGEKLKKSLFMLKELNNKFRYAVFGLGSSMYPRFCAFAHDIDQKLSHLGASQLTPMGEGDELSGQEDAFRSWAVQTFKAACETF

Soluble on expression in E. coli, soluble:
KVKWTHEEDEQLRALVRQFGQQDWKFLASHFPNRTDQQCQYRWLRVL
MTNLELSGSQSYLNDESTANLSSLAGKFLVQFWGVRGLIPTPSSNTSRYGGNTACVEMQVAGKRLIFDGGTGLRILGKAWQHLQQPLEAHLFFTNSQSNRIQGFPFFAPAFIAGNCFHIYGGAASNGASIKQCLCDQMLQPHFPYPLQVMQSELQFYPLTPDSEVKLDDVTIRTALINQTQRSIGYRVTWQEYSVAYVTDLNMSAEQGEREQVLQIIQDVDLLIANATYTPPTSHDHESVDLLWQAAVEMAQKAGVRKLIISHHHPDDHDDFLDQVEKEVQSTFSDALLACEGLALPVFLEHHHHHH
MKNKVVVVTGVPGVGGTTVTQKAMDILSEEGLNYKMVNFGSAMFDVANEEGLASDRDQMRKLDPETQKRIQKMAGRKIAEMAKESPVAVDTHSTVKTPKGYLPGLPAWVLTELNPDIVIVVETDGDEILMRRLSDESRKRDLETTASIEEHQFMNRAAAMSYGVLTGATVKIVKNKNGLVDNAVEELMSVLR
MGHHHHHHMSADFGLIGLAVMGQNLILNAADHGFTVCAYNRTQSKVDHFLANEAKGKSIIGATSIEDFISKLKRPRKVMLLVKAGAPVDALINQIVPLLEKGDIIIDGGNSHFPDSNRRYEELKKKGILFVGSGVSGGEEGARYGPSLMPGGSEEAWPHIKNIFQSISAKSDGEPCCEWVGPAGAGHYVKMVHNGIEYGDMQLICEAYDIMKRLGGFTDKEISDVFAKWNNGVLDSFLVEITRDILKFDDVDGKPLVEKIMDTAGQKGTGKWTAINALDLGMPVTLIGEAVFARCLSALKNERIRASKVLPGPEVPKDAVKDREQFVDDLEQALYASKIISYAQGFMLIREAAATYGWKLNNPAIALMWRGGCIIRSVFLGQITKAYREEPDLENLLFNKFFADAVTKAQSGWRKSIALATTYGIPTPAFSTALSFYDGYRSERLPANLLQAQRDYFGAHTFRVLPECASDNLPVDKDIHINWTGHGGNVSSSTYQA
MENQDYTVRLTVQASPQEVFKQINRVTAWWTKNLQGDSEKLNDVFTVNFPGMHVSTQKLIECIPDKKVTWMVTDSHLTFIQRKTEWTDTTIQFDISRNVKHTEVLFTHKGLNPAIECYGDCAKGWDYFIKGSLFKLLTEGTGTPELEHHHHHH
GMTMPIFNISDDVDLVPAMPAEGRDGGSYRRQIWQDDVENGTIVAVWMAEPGIYNYAGRDLEETFVVVEGEALYSQADADPVKIGPGSIVSIAKGVPSRLEILSSFRKLATVIPKP
MEPTEKSMLLETTSTTKMETKYEDMLPVMAEKMDVEEFVSELCKGFSLLADPERHLITAESLRRNSGILGIEGMSKEDAQGMVREGDLDGDGALNQTEFCVLMVRLSPEMMEDAETWLEKALTQELCNHNLSSMP
SSGSTVDSTTLCLFDVDGTLTAARQKATADMHEFLSKLKQRVKVGVVGGSDLDKIKEQLGDDVIDRVDYVFAENGLVAYRFGKLHSVQNIQAYLGEDILQEFINFCLNYLSKIKLPKKRGTFIEFRNGMLNVSPIGRSCSQQERIEFFELDKKEKIRETFVSVLKEEFAGKGLAFSIGGQISFDVFPEGWDKRYCLGIVEKDSYQHIHFFGDKTMPGGNDYEIFVDPRTIGHEVKSPEDTQRICRELFFS
MAHHHHHHMFGTPVENLTANQIKEELRTLYGVSDFSGCIEQKDLQEKLEKTRETELITHGLKYGPLLQIGNRQSPSGIVTLTHGLGDSANGWESVAVELSRRLPHLLFLLPTASMQPVGINGGAVMNSWYDIRNVSSGNGVTEDAEAIIMSANYLKSLAYTASRRYQVPAGRVVYAGFSQGAVISLAAGLTARIAPAGVAALSGYFAAAEKILPQLCNKSLPVLLCHGTMDNIIPFSAAEKTKETLESLGVGPVTLYSYPMEHSSHPKEINDLEKFLQQVLPGPSSKS
MRSGDAEIKGIKPKVIEEYSLSQGSGPSNDSWKSLMSSAKDTPLQYDHMNRESLKKYFNPNAQLIEDPLDKPIQYRVCEKCGKPLALTAIVDHLENHCAGASGK
MINEIKKDAQERMDKSVEALKNNLSKVRTGRAHPSLLSGISVEYYGAATPLNQVANVVAEDARTLAITVFDKELTQKVEKAIMMSDLGLNPMSAGTIIRVPLPPLTEERRKDLVKIVRGEAEGGRVAVRNIRRDANNDLKALLKDKEISEDEDRKAQEEIQKLTDVAVKKIDEVLAAKEKELMEV
MAAGQNGHEEWVGSAYLFVESSLDKVVLSDAYAHPQQKVAVYRALQAALAESGGSPDVLQMLKIHRSDPQLIVQLRFCGRQPCGRFLRAYREGALRAALQRSLAAALAQHSVPLQLELRAGAERLDALLADEERCLSCILAQQPDRLRDEELAELEDALRNLKCGSGARGGDGEVASAP

Source: the DeepSol protein solubility set
